Molecular target: Recombinant HSP with AVI and HIS tag (16 kDa heat shock protein of Mycobacterium tuberculosis) (Mycobacterium tuberculosis) (UniProt P9WMK1)
Experiment: native MS

Recombinant HSP with AVI and HIS tag (16 kDa heat shock protein of Mycobacterium tuberculosis) (from UniProt P9WMK1 1-144) (natural protein)
stoichiometry N: 2
